Data taken from article PMC7397744.

Experiment: crystallisation trials
Settings: glycan lost; control: wild type

B1: human lysosomal acid lipase (HLAL): enzymatically deglycosylated (protein)
parent chain: MKMRFLGLVVCLVLWTLHSEGSGGKLTAVDPETNMNVSEIISYWGFPSEEYLVETEDGYILCLNRIPHGRKNHSDKGPKPVVFLQHGLLADSSNWVTNLANSSLGFILADAGFDVWMGNSRGNTWSRKHKTLSVSQDEFWAFSYDEMAKYDLPASINFILNKTGQEQVYYVGHSQGTTIGFIAFSQIPELAKRIKMFFALGPVASVAFCTSPMAKLGRLPDHLIKDLFGDKEFLPQSAFLKWLGTHVCTHVILKELCGNLCFLLCGFNERNLNMSRVDVYTTHSPAGTSVQNMLHWSQAVKFQKFQAFDWGSSAKNYFHYNQSYPPTYNVKDMLVPTAVWSGGHDWLADVYDVNILLTQITNLVFHESIPEWEHLDFIWGLDAPWRLYNKIINLMRKYQ
other: crystallisability: no change
